# Assay results as given in the supplement of paper PMC12042874.
# ± gives the uncertainty stated by the source.
# Experiment: amyloid nucleation score (Sup35N fusion, yeast selection) (log enrichment); library NNK1; higher = more nucleation; inactive = no reads after selection
# Method in brief: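 The nucleation score is the log enrichment of output over input reads, calculated with DiMSum and centred on the mode score of non-aggregating sequences. Sequences with under 100 input reads were excluded. Reads came from Illumina sequencing of plasmid inserts from psi-negative yeast expressing Sup35N fused to peptides of 20 random codons, induced 24 hours with 100 μM copper sulfate and grown 7 days at 30°C without adenine and uracil.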
row,Substance,amyloid nucleation score
1,SVYVLSRGAVSMSVWHR,3.64 ± 0.15
2,SSESICFNIRGQDINRT,-0.446 ± 0.37
3,AVLNFIQVVVVVEVVGCYQH,2.68 ± 0.28
4,VLTVAGF,-0.561 ± 0.44
5,LYTHNSELNIKGSKVVHIEW,0.489 ± 0.4
6,GSQMYNVHVVCVT,0.154 ± 0.73
7,QPKFLVCFA,0.101 ± 0.6
8,PVQLRFRSSNIWTLMNQVFI,0.612 ± 0.95
9,YRVSNVNFSFATFFTHAPVR,1.76 ± 0.16
10,SCLWSSCCVV,0.171 ± 0.44
11,FFVVELFVSHKLRLYRVRFG,0.412 ± 0.62
12,VETRRWFHRL,-0.177 ± 1.4
13,SLFMDRFNVDVI,-0.107 ± 0.35
14,SFAQLMGGAVSHYVFLPWNA,-0.525 ± 0.85
15,KLQIPLGQVSLGSKVMKTGV,-1.08 ± 2.4
16,CSCVVVNCNWYG,8.609 ± 0.071
17,DLCIFIYFVISVRVLYRISN,inactive
18,DVSNTVFFTLLYLLGPRCRS,0.721 ± 0.38
19,FNKQFCK,0.776 ± 0.44
20,RNCLFVFGSLGYCSERAYKL,6.7 ± 0.087
21,VLFYQF,-0.382 ± 0.69
22,TDCHS,inactive
23,FLVCSFNYGAAPFFGGFMHY,0.679 ± 0.23
24,LRLNDSSLRIPEAA,-0.107 ± 0.44
25,HILRIWLRGLWMILYRTYEN,-0.513 ± 0.84

row,Substance,amyloid nucleation score
1,LVMFMNMSLRYNRGLSLVKR,-0.252 ± 0.26
2,MCGRSGTFSAILRDREGLNI,0.219 ± 0.65
3,TPSSAFFDAMLNLQQVQSKC,inactive
4,FFVSIELITTRLLISQHNSY,-0.689 ± 0.89
5,SRNAVVVVVQTYMDMTSCNT,6.37 ± 0.068
6,KANPDHIPRRLDYRGSGPSR,-0.482 ± 0.94
7,CSGNSSGVRCMVRSNRS,0.523 ± 0.38
8,HSSDMCLSGLM,0.002 ± 1.4
9,LRLENAQLSFTFEYWILYG,-0.475 ± 1.7
10,LAPGGDWYY,inactive
11,CRLKSMMVRNSWSVCSSGWG,0.32 ± 0.5
12,SRLSLT,0.179 ± 0.82
13,LLITNGMSNDGNQCSS,inactive
14,WKCLRYPY,inactive
15,CWVLNFVFGDCNLSCWGN,7.185 ± 0.051
16,VESLDKIPMR,0.173 ± 0.73
17,PSCILMNLEVYND,0.827 ± 0.42
18,AYYSRNIIKPGKKVEVPKMG,-1.01 ± 0.72
19,AFMSRVPFSHCIKSGGLQGT,0.19 ± 0.49
20,GEGQQSGVVSNLSGYRSNS,0.418 ± 0.51
21,WHFSMFREWRSS,-0.649 ± 0.73
22,PSHFHHQ,0.305 ± 0.32
23,VRLLTFDITSLFRVFYVKHR,0.103 ± 0.67
24,NPSQIELRAFRTCMMYCGS,inactive
25,LGSWARD,-0.27 ± 0.54

row,Substance,amyloid nucleation score
1,SSPIGSSSFTMGCGWREQ,0.599 ± 0.88
2,NPFWWVRPL,0.284 ± 0.81
3,WTAFGRFAVQTFFEKHM,-0.275 ± 0.24
4,SRWPTHGSQIFVLTESVLTN,0.062 ± 0.55
5,NMSCCSTPYNPWTSIVPNVM,0.103 ± 0.39
6,YFQQEVQFEWGCVWREWCDC,0.197 ± 0.52
7,VSSRITPS,1.11 ± 0.39
8,LDTVYNVSMKKIKVTSIGQC,-0.537 ± 0.47
9,FILSCISPPYVHCFYCLMFS,0.854 ± 0.9
10,EFAYQV,-0.552 ± 1.5
11,GCRMWFAWQVGVILMVDMFI,0.307 ± 0.81
12,FYITQTEGQLLLCR,-0.148 ± 0.55
13,LSLILFVCRIYTYSCSHRAL,0 ± 0.36
14,VMWSVDFWYPAMSGVIPDQF,1.45 ± 0.65
15,TLYHSI,-0.385 ± 0.56
16,LFLKFGGSFAVIFWILVAAV,0.74 ± 0.48
17,ESAERGVRGSGRGRMNGGMM,-0.778 ± 0.98
18,KLDVSLKKYLD,0.368 ± 0.31
19,GILFWSGL,1.07 ± 0.66
20,KVGLSMKYRPYS,2.29 ± 0.22
21,GAAQWMKNSTIGHARFIADL,0.2 ± 0.39
22,VEAMLTEPWRWH,-0.522 ± 1.7
23,LVNCVVGFLTLVNFWSIHQL,0.206 ± 0.79
24,ITCLRSCLLFNFSGCTTSDQ,4.11 ± 0.071
25,VFYGCVDESCDLNRLGSVSY,-0.101 ± 0.54

row,Substance,amyloid nucleation score
1,RYVSVTGYDAQCRYCDKGTG,-0.326 ± 0.44
2,AVFDSKLFLQSWVASTGIRV,inactive
3,ALIFLGYMLRRRYWIYRLLS,0.07 ± 0.58
4,ATQNLKY,0.824 ± 0.79
5,LLYPHSTSRGLIMTFYPKSG,0.54 ± 0.6
6,IKAWWMNHGRYHCLTLRVCL,0.713 ± 0.38
7,LMGECGLSFLTPY,0.275 ± 0.84
8,SSSFRHAMRPSSISQRISPC,0.354 ± 0.54
9,SCLPFLGYPFQDVGLIFLVA,0.749 ± 0.51
10,QYMREEAGVALNGETHFFSL,0.567 ± 0.39
11,RHDALLSGLYHCRCNQLNVC,4.2 ± 0.074
12,CGIING,-1.08 ± 1.7
13,LSMPGTTCIFYYRLFLVLGE,-0.043 ± 0.31
14,PCTMGMYIGAGHR,0.418 ± 1
15,IASECWET,-0.391 ± 0.52
16,ISEKRISMCGIRNKYIWGHG,-0.953 ± 1.1
17,NTKWLMGSLSIIVCMPKSYW,6.294 ± 0.045
18,LIVNLKICAVHVGYHWGWRA,0.653 ± 0.29
19,LWNGIFELAYLTGVYEFRYG,2.07 ± 0.26
20,VRMKIGNFSCCRYWKPPLYT,1.29 ± 0.61
21,SRFNPSQRMHSNSGKGGVSF,inactive
22,YHLERKGPAFVNFLTMGSCR,-0.908 ± 0.85
23,NLMFSNGSNRSGF,0.142 ± 0.38
24,AKPMNKTEYFSAYLQLHMGI,3.1 ± 0.12
25,RPPNISLSQFYDVSCAKLRC,0.295 ± 0.31

row,Substance,amyloid nucleation score
1,MICKMNYQVRIPINFSYCLN,2.43 ± 0.15
2,RLNVILGLTSTLNYSSVMPR,3.67 ± 0.17
3,TIRVLDRTFVS,inactive
4,DYNWSCFH,1.28 ± 0.69
5,CTPVT,0.887 ± 1
6,TMLWIVIARNFECEMGFNM,3.1 ± 0.08
7,FVEMVYFNECCIPKFDIEYV,1.6 ± 0.17
8,LNFVNAPRSHMSGYSIGGLC,-1.5 ± 1.7
9,YGGFIESLLACAKGESRNMM,-0.608 ± 1
10,SKYRLNAMWSACRQRWANIG,-0.995 ± 1.7
11,LQTGRYDWKVDPINSSMESV,0.26 ± 0.7
12,HPMITRFLAD,0.413 ± 1.4
13,SDSFLSSYHSFMRDVWV,0.872 ± 0.58
14,FPLGTQDRIIRFVESQYDSM,-0.516 ± 1.7
15,FGSRQVYWSRRMIVQGQVMK,-0.837 ± 0.71
16,GIWCFACMSKFMYTRFSYN,-1.02 ± 0.67
17,CWCQAPVC,0.124 ± 0.31
18,FMRDFSGCSNDRFDGDLALC,0.024 ± 0.62
19,CIFFVNTGHGYLWQDYAHSN,3.58 ± 0.15
20,CSILYAAPKIRQSARFLMLS,0.451 ± 0.32
21,WTMLDMFLFS,-0.872 ± 0.42
22,LSCDVQWLCLESNCE,3.96 ± 0.07
23,LIHYNNNVYTRWAWSSQQGE,2.75 ± 0.2
24,LLMPDSNG,-0.699 ± 0.3
25,GVGLDCFDRTWFWMFQTPQC,0.483 ± 0.35

row,Substance,amyloid nucleation score
1,PMFWRYILFSANNEPQFIRQ,0.073 ± 0.24
2,QSFSLS,0.609 ± 0.33
3,LVFTMWLPKRDACPDLTTMM,0.34 ± 0.47
4,MCVMVGLLYGVLLSSFTNNA,0.684 ± 0.23
5,SRGTGRARDAAA,-0.488 ± 1.1
6,QIRLYSSGWMFGCAAYVVSM,0.853 ± 0.41
7,ASRYGDF,0.555 ± 0.42
8,KTLRNNLLFIQSTPK,0.1 ± 0.28
9,MGHAGTLCFANNCLNM,7.483 ± 0.059
10,TTCCINSLMCTDTNSCIAGV,2.08 ± 0.6
11,FYMGGDCVYNECQGEIRLSL,-0.234 ± 0.7
12,ILPAYAQ,0.134 ± 1.1
13,SGCRYSAIVGSPMRCNMYRS,-0.756 ± 2.4
14,AYSSARHFFTLTFKEIRFGR,0.141 ± 1.4
15,RYNRLCTSLGRFKVVKSILS,0.131 ± 0.33
16,RSGTPQSERDGGGFTEVKKT,-0.205 ± 0.42
17,DLPLDS,0.16 ± 0.72
18,PFTCCAVVPFSVTFSRVLES,inactive
19,FQARHIFHVFLVSSSRVRLT,1.65 ± 0.47
20,KYDRCYYSRMNPSCVYIPYS,2.47 ± 0.4
21,AFNGTSAGMCKWGACTEWCV,-0.382 ± 0.28
22,FGQNFEGIWPFVVKNRRLGQ,-1.12 ± 0.59
23,PFTNQPMSPARHLFI,-1.88 ± 2.4
24,NFTNFW,-0.732 ± 0.56
25,VFCLRLAYNAFREMSAHKC,3.31 ± 0.18

row,Substance,amyloid nucleation score
1,FYEASDRGERLEQKLKLTVL,1.51 ± 0.49
2,VNRYFVFVSVMIYMLCESRF,0.295 ± 0.75
3,AWNCHKFND,0.668 ± 0.78
4,CKGFK,inactive
5,FLINGISSLCGLVVGLKFMD,0.755 ± 0.34
6,AKHVLGNHAIRNGSKL,0.258 ± 0.3
7,LIGQLIFRPVNGARKIPV,-0.31 ± 0.29
8,KYLVLHILHIWMCHRYVWGM,-0.973 ± 0.6
9,DLIAARLAALF,-0.964 ± 0.39
10,IISAFISESTYDCGFASWVS,-0.187 ± 0.42
11,GMWCLFRKCSVA,inactive
12,SGNTGPFRCARAADNSNFKG,-0.922 ± 0.67
13,LPIVGFSCFEFIMIERMRLV,inactive
14,ILLICYGSCAPNNMVSASTD,-0.959 ± 0.84
15,TFYKYVGSTISPSFGFRYVG,-0.052 ± 0.38
16,AVCVPVSKDGPVKGKFINKY,0.329 ± 0.41
17,FSSCLTMRLV,-0.365 ± 1.6
18,LSGDIFRNHMNRFYL,-0.071 ± 0.27
19,AKGCNMWI,2.3 ± 0.32
20,GFYGCYSYVVLGGRVEP,-1.02 ± 2.4
21,FTVLVELALFMRSCLSRGFN,-0.261 ± 0.27
22,ILPCFDANIIQDP,-0.064 ± 0.81
23,GRMHKLVNCRAFTGLYKGIY,-1.03 ± 0.62
